Experimental data taken from US6689596B2, “High level expression of human cyclooxygenase-2” (Merck & Co., Inc., priority 1992, dated 2004).

B1: EGF: human EGF (CALBIOCHEM) (protein, UniProt P01133 23-1207, looked up)
Pro-epidermal growth factor: PQHWSCPEGTLAGNGNSTCVGPAPFLIFSHGNSIFRIDTEGTNYEQLVVDAGVSVIMDFHYNEKRIYWVDLERQLLQRVFLNGSRQERVCNIEKNVSGMAINWINEEVIWSNQQEGIITVTDMKGNNSHILLSALKYPANVAVDPVERFIFWSSEVAGSLYRADLDGVGVKALLETSEKITAVSLDVLDKRLFWIQYNREGSNSLICSCDYDGGSVHISKHPTQHNLFAMSLFGDRIFYSTWKMKTIWIANKHTGKDMVRINLHSSFVPLGELKVVHPLAQPKAEDDTWEPEQKLCKLRKGNCSSTVCGQDLQSHLCMCAEGYALSRDRKYCEDVNECAFWNHGCTLGCKNTPGSYYCTCPVGFVLLPDGKRCHQLVSCPRNVSECSHDCVLTSEGPLCFCPEGSVLERDGKTCSGCSSPDNGGCSQLCVPLSPVSWECDCFPGYDLQLDEKSCAASGPQPFLLFANSQDIRHMHFDGTDYGTLLSQQMGMVYALDHDPVENKIYFAHTALKWIERANMDGSQRERLIEEGVDVPEGLAVDWIGRRFYWTDRGKSLIGRSDLNGKRSKIITKENISQPRGIAVHPMAKRLFWTDTGINPRIESSSLQGLGRLVIASSDLIWPSGITIDFLTDKLYWCDAKQSVIEMANLDGSKRRRLTQNDVGHPFAVAVFEDYVWFSDWAMPSVMRVNKRTGKDRVRLQGSMLKPSSLVVVHPLAKPGADPCLYQNGGCEHICKKRLGTAWCSCREGFMKASDGKTCLALDGHQLLAGGEVDLKNQVTPLDILSKTRVSEDNITESQHMLVAEIMVSDQDDCAPVGCSMYARCISEGEDATCQCLKGFAGDGKLCSDIDECEMGVPVCPPASSKCINTEGGYVCRCSEGYQGDGIHCLDIDECQLGEHSCGENASCTNTEGGYTCMCAGRLSEPGLICPDSTPPPHLREDDHHYSVRNSDSECPLSHDGYCLHDGVCMYIEALDKYACNCVVGYIGERCQYRDLKWWELRHAGHGQQQKVIVVAVCVVVLVMLLLLSLWGAHYYRTQKLLSKNPKNPYEESSRDVRSRRPADTEDGMSSCPQPWFVVIKEHQDLKNGGQPVAGEDGQAADGSMQPTSWRQEPQLCGMGTEQGCWIPVSSDKGSCPQVMERSFHMPSYGTQTLEGGVEKPHSLLSANPLWQQRALDPPHQMELTQ
modifications: Pro-epidermal growth factor
B2: IL1-α: human recombinant IL1-α (R and D systems Inc.) (protein, UniProt P01583 113-271, looked up)
Interleukin-1 alpha: SAPFSFLSNVKYNFMRIIKYEFILNDALNQSIIRANDQYLTAAALHNLDEAVKFDMGAYKSSKDDAKITVILRISKTQLYVTAQDEDQPVLLKEMPEIPKTITGSETNLLFFWETHGTKNYFTSVAHPNLFIATKQDYWVCLAGGPPSITDFQILENQA

Test system: osteosarcoma 143 cells
Test: PGE2 synthesis by osteosarcoma 143 cells in response to arachidonic acid after treatment with growth factors/cytokines
Assay type: cell-based, human
Conditions: within a 3-hour period, 1% serum, relative to cells grown in the absence of these factors

Molecule | levels of PGE2 synthesis by osteosarcoma 143 cells in response to arachidonic acid (15 ng/ml) | levels of PGE2 synthesis by osteosarcoma 143 cells in response to arachidonic acid (10 pg/ml)
B1 | increased | –
B2 | – | increased
